Source: publication PMC9977175 (Science Advances, 2023)

B1: ATG16L1(124 to 247) (domain or fragment, human, UniProt Q676U5 124-247, looked up)
chain: MQMNEAKIAECLQTISDLETECLDLRTKLCDLERANQTLKDEYDALQITFTALEGKLRKTTEENQELVTRWMAEKAQEANRLNAENEKDSRRRQARLQKELAEAAKEPLPVEQDDDIEVIVDET
B2: Trx-ATG16L1(78 to 197) (domain or fragment, human, UniProt Q676U5 78-197, looked up)
chain: NDNQLQEMAQLRIKHQEELTELHKKRGELAQLVIDLNNQMQRKDREMQMNEAKIAECLQTISDLETECLDLRTKLCDLERANQTLKDEYDALQITFTALEGKLRKTTEENQELVTRWMAE
B3: Trx-tagged ATG16L1(78 to 206) (domain or fragment, human, UniProt Q676U5 78-206, looked up)
chain: NDNQLQEMAQLRIKHQEELTELHKKRGELAQLVIDLNNQMQRKDREMQMNEAKIAECLQTISDLETECLDLRTKLCDLERANQTLKDEYDALQITFTALEGKLRKTTEENQELVTRWMAEKAQEANRLN
B4: Trx-tagged ATG16L1(78 to 247) (domain or fragment, human, UniProt Q676U5 78-247, looked up)
chain: NDNQLQEMAQLRIKHQEELTELHKKRGELAQLVIDLNNQMQRKDREMQMNEAKIAECLQTISDLETECLDLRTKLCDLERANQTLKDEYDALQITFTALEGKLRKTTEENQELVTRWMAEKAQEANRLNAENEKDSRRRQARLQKELAEAAKEPLPVEQDDDIEVIVDET

Molecular target: the molecule itself
Experiment: SEC-MALS

Stoichiometry N, 2:
B1
B2
B3
B4
